# Assay results taken from patent US20060040861A1, “Method of treating, preventing, and diagnosing prostate cancer” (priority 2004, published 2006).
# B1: f-adiponectin: Recombinant human full-length (non-proteolytic) adiponectin, about 30-kDa polypeptide; lot mainly HMW form (protein, UniProt Q15848 1-244, looked up)
# chain: MLLLGAVLLLLALPGHDQETTTQGPGVLLPLPKGACTGWMAGIPGHPGHNGAPGRDGRDGTPGEKGEKGDPGLIGPKGDIGETGVPGAEGPRGFPGIQGRKGEPGEGAYVYRSAFSVGLETYVTIPNMPIRFTKIFYNQQNHYDGSTGKFHCNIPGLYYFAYHITVYMKDVKVSLFKKDKAMLFTYDQYQENNVDQASGSVLLHLEVGDQVWLQVYGEGERNGLYADNDNDSTFTGFLLYHDTN
# modifications: full-length
# notes: Recombinant human full-length (non-proteolytic) adiponectin, about 30-kDa polypeptide; lot mainly HMW form
# Legend:
# Assay in all cases: MTT assay (cell growth / viability)
# Type in all cases: cell-based, human
# Settings in all cases: 5 days
# [1] = test system: LNCaP-FGC cells
# Description: (§1) DU145 (1×10^3/well), PC-3 (1×10^3/well) and LNCaP-FGC (1.5×10^3/well) cells were seeded in 96-well plates 24 hours prior to serum starvation. Cells were starved of serum for 24 hours and then incubated in the serum-free medium with or without 12.5 μg/ml leptin for 5 days. 3-(4,5-dimethylthiazol-2-yl)-2,5-diphenyl tetrazolium bromide (MTT) was added to each well to a concentration of 0.5 mg/ml. After 3-hour incubation at 37° C., cells were lysed in 50% dimethylformamide and 20% SDS at 37° C. Optical densities (O.D.) at 550 nm and 670 nm were measured by a plate reader, and differential O.D. between 550 nm and 670 nm (O.D. 550 nm minus O.D. 670 nm) were determined. Each experiment was performed in quadruplicate, and the values are reported as mean±SD.
# (§2) DU145 (0.5-1.0×10^3/well), PC-3 (0.5-1.0×10^3/well), and LNCaP FGC (0.75-1.5×10^3/well) cells were seeded in 96-well plates 24 hours prior to serum starvation. Cells were starved of serum for 24 hours and then incubated in the serum-free medium with or without cytokine(s), DHT and/or doxorubicin at indicated concentrations for 5 days. MTT was added to each well to a concentration of 0.5 mg/ml. After being incubated at 37° C. for 3 hours, cells were lysed in 50% dimethylformamide and 20% SDS at 37° C. Optical densities (OD) at 550 and 670 nm were measured by a plate reader, and differential OD between 550 and 670 nm (OD 550 minus OD 670 nm) were determined. Each experiment was performed in quadruplicate, and the values were reported as mean±S.D.
# [2] = test system: PC-3 cells
# Description: as §1, §2
# [3] = test system: DU145 cells
# Description: as §1, §2
# Sucrose gradients were set up in 2.2-ml centrifuge tubes (Beckman Coulter, Inc., Fullerton, Calif.) by layering 5, 10, 15 and 20% (w/v) sucrose in velocity sedimentation buffer (10 mM HEPES, pH 8; 125 mM NaCl). Gradients were then equilibrated overnight at 4° C. Twenty micrograms of f-adiponectin in 200 μl of velocity sedimentation buffer containing 5 μl of HMW-Native protein marker kit (GE Healthcare, Piscataway, N.J.) set to 0.5 μg/μl albumin was overlayed onto the sucrose gradients and spun in a Beckman TLS-55 rotor at 55,000 rpm for 5 hours at 4° C. Fractions (150 μl each) were sequentially collected from the top to the bottom; aliquots were removed and used immediately in the MTT assay. The remaining material was stored at −80° C. for Western blot analysis with anti-adiponectin antibody and SDS-PAGE with silver staining. For the MTT assay, DU145 cells (0.5×1 03/well) were serum-starved and incubated in triplicate in 60 μl of the serum-free medium plus 30 μl of each fraction. For Western blot analysis, 0.5 μl of each fraction was electrophoresed on a 10% SDS-polyacrylamide gel and electrotransferred to a polyvinylidene difluoride membrane. The membrane was washed, blocked, and hybridized with the anti-adiponectin antibody. Bands were visualized using a Lumiglo reagent (Cell Signaling Technology, Inc., Beverly, Mass.). For SDS-PAGE, 20 μl of each fraction was electrophoresed on a 10% SDS-polyacrylamide gel, followed by silver staining using the Silver Stain kit (Bio-Rad Laboratories, Inc., Hercules, Calif.) to visualize molecular weight markers.
molecule,measurement,setting,value
leptin: Recombinant human leptin purchased from R&D Systems; major adipose cytokine,live cell mass (MTT),"[1]; 12.5 μg/ml leptin, serum-free",did not influence
same,living cells (MTT),"[2]; 12.5 μg/ml leptin, serum-free",increased living cells
same,"cell growth (MTT), leptin together with IGF-I","[3]; 12.5 μg/ml leptin and 100 ng/ml IGF-I, absence of androgen",stimulated cell growth synergistically
same,living cells (MTT),"[3]; 12.5 μg/ml leptin, serum-free",increased living cells
B1,effect on DHT-stimulated cell growth (MTT),"[1]; 1 μg/ml f-adiponectin, 10 nM DHT",significantly suppressed
same,effect on the conditioned medium stimulation of cell growth (MTT),[1]; 1 μg/ml f-adiponectin,drastically suppressed
same,effect on the doxorubicin suppression of cell growth (MTT),[1]; 1 μg/ml f-adiponectin,enhanced the doxorubicin suppression
same,cell growth (MTT) at concentrations up to 1 μg/ml,[1]; serum-free,inhibited cell growth in a dose-dependent manner
same,concentration at which the inhibitory effect on cell growth saturated,[1]; MTT,1 µg/mL
same,effect on the conditioned medium stimulation of cell growth (MTT),[2]; 1 μg/ml f-adiponectin,drastically suppressed
same,effect on the doxorubicin suppression of cell growth (MTT),[2]; 1 μg/ml f-adiponectin,enhanced the doxorubicin suppression
same,cell growth (MTT) at concentrations up to 1 μg/ml,[2]; serum-free,inhibited cell growth in a dose-dependent manner
same,concentration at which the inhibitory effect on cell growth saturated,[2]; MTT,1 µg/mL
same,effect on the leptin and/or IGF-I stimulation of cell growth (MTT),"[3]; 1 μg/ml f-adiponectin, 12.5 μg/ml leptin and/or 100 ng/ml IGF-I",remarkably suppressed
same,effect on the conditioned medium stimulation of cell growth (MTT),[3]; 1 μg/ml f-adiponectin,drastically suppressed
same,effect on the doxorubicin suppression of cell growth (MTT),[3]; 1 μg/ml f-adiponectin,enhanced the doxorubicin suppression
same,cell growth (MTT) at concentrations up to 1 μg/ml,[3]; serum-free,inhibited cell growth in a dose-dependent manner
same,concentration at which the inhibitory effect on cell growth saturated,[3]; MTT,1 µg/mL
